# Source: paper PMC10421056 (Science Advances, 2023)
# B1: His-tagged histone H2A.Z.9 (natural protein)
# chain: not shown
# B2: His-tagged histone H2A.X.3 (natural protein)
# chain: MSSGAGSGTTKGGRGKPKATKSVSRSSKAGLQFPVGRIARFLKAGKYAERVGAGAPVYLSAVLEYLAAEVLELAGNAARDNKKTRIVPRHIQLAVRNDEELSKLLGSVTIANGGVLPNIHQTLLPSKVGKNKGDIGSASQEF
# Molecular target: His-tagged histone H2B.9 (Arabidopsis, UniProt O23629 1-150)
# Test: reconstitution of histone heterodimers
# His-tagged histone H2B.9, sequence (O23629 whole entry): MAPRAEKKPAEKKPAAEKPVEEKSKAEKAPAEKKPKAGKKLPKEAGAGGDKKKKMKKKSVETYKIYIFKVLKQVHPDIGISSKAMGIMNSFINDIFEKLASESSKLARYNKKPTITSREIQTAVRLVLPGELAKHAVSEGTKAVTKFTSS
row,Binder,binding result
1,B1,binds
2,B2,binds
